The values that follow come from the DeepSol protein solubility set.

The nature of the data set: soluble on expression in E. coli; label from the status in PepcDB or PDB records.
Regarding “MGSDKIHHHHHHKDLLGREVEIPSNVNRIVAVGPGALRLIAYLKATDMVVGVEDFEKLRPYGRPYILAYPELKKLPSVGPGGPGKLPDLESLITLQPDVVFITYVDRKTAKDIQEKTGIPVVVLSYGNLGTFEDEDLFRSIELAGKILGREERAHEVVDFIRKAQEDLVTRSEGVESPTVYVGGIGYKGAHGIDSTEAKYPPFVVLHARNVVDELGEGHKFIDPEKLLVWNPEYIFIDENGLSLVLDDYSKHREFYESLSAVKRGKVYGILPYNYYTTNIGTALADAYFIGKVLYPERFTDIDPEEKADEIYEFLLGKRVYGEMAEQFGGFGKIDLPSGRILRGTW”, the “soluble on expression in E. coli” value is given as “not soluble”. For “MGGGGGGMEQFNAFKSLLKKHYEKTIGFHDKYIKDINRFVFKNNVLLILLENEFARNSLNDNSEIIHLAESLYEGIKSVNFVNEQDFFFNLAKLEENSRDTLYQNSG” the value was “soluble”; for “MERTVKLRVKVDYKTYSALKEVEKEYREVLEEAINYGLSNKTTSFTRIKAGVYKTEREKHKDLPSHYIYTACEDASERLDSFEKLKRRGRSYTEKPSVRRVTIHLDDHLWKFNLDRISISTKRSRILISPTFPKIFWRYYNKGWRIASEARFKLLKGNVVEFYVIFKRDEPKPYEPKGFISVDLNENSVSVLVDGKPMLLETNTKRITLGYEYRRKAITTGKSTKDREVRRKLKRLRERNKKVDIRRKLAKLIVKEAFESRSVIVLEDLPRRTPEHMIKDVKDSQLRLRIYRAAFSSMKNAIIEKAREFGVPVVLVNPSHTSTVCPVHGTKIVYQLDGGDAPRVGVCEKGKEKWHRDVVALYNLARRAGDVSPVPLGSKESHDPPKRWLRAKSLHSIMNDHKMIEMKVLEHHHHHH”, “not soluble”.

Regarding “MSLTVSPLSGSLTPIGSEVKRGAELAVQEQAAAFKALGYDLVLTPYDDQASATLAPQIARTIVADKNVLGVVGALNSSVSNVIAQAFGPAKLAMISPASTGDQLTQNGWNHFSRVVAPDSAQGVAAADYIAEELKAGSVVVISDNTAYGNGLTRVLMANLKKRKVPVAAYMGASTPAQIAEAVKRVKASSADVVYFGGTDDTGSQLVKALRAAGVTATFMGGDGLDSPSFLQRAGIAGAGVVYSTVFGPVSAFSNALDFSDRYRAAYKTKPSGVAVYAYDATNTLLSAIKAAAGNSRTLPTRAEVSAAVRKVNLPACFSADKSRCATITGAIAFSDSGERLRSRVMIMRFDDVLQPQVAKVQTVNAESLKEGHHHHHH”, the “soluble on expression in E. coli” value is on record as “soluble”. For “MGSDKIHHHHHHDNDWVDQSRNPDVIAPDAYASFSINIPHASKTRAVSTDPGIAAENTVKSLHVFIYDAESPNTPTVAEFTVAGGTLTQKPAGSSTWMTSQPISTKKTDKYIFAGVNLNAEIVNYITSNGLGAFSYKDFTQEITKLADQTNGFVMFNSAYPTLTPAADLYEKKSEAENNHITISVNRVTAKAAVFQSQSFVVNGGGTMTDLKFGWRNLNKKFYFIQDNRDALIKDYNWANYTAEDFTRGTDAINVYASADVPTSFSYATENAFQYISGTSNVDAATFISVSGVFTPTNIISAKKNPPTVAADFEIIVNPKPVDKTFFVVRTADGVANYFIDGPTAEKFAELCAANTPQMPSINGIYLLSENTYSNGLCYYHIFVNGDAVTPQAPYNIYRNQYFKININSIQAPGNPSDNFDRGEPIKPNSWIGVDIQIIPWEVIEEDHDL” the value was “not soluble”. For “MGSDKIHHHHHHMLLNVKQDFCLAGPGYLLNHSVGRPLKSTEQALKQAFFAPWQESGREPWGQWLGVIDNFTAALASLFNGQPQDFCPQVNLSSALTKIVMSLDRLTRDLTRNGGAVVLMSEIDFPSMGFALKKALPASCELRFIPKSLDVTDPNVWDAHICDDVDLVFVSHAYSNTGQQAPLAQIISLARERGCLSLVDVAQSAGILPLDLAKLQPDFMIGSSVKWLCSGPGAAYLWVNPAILPECQPQDVGWFSHENPFEFDIHDFRYHPTALRFWGGTPSIAPYAIAAHSIEYFANIGSQVMREHNLQLMEPVVQALDNELVSPQEVDKRSGTIILQFGERQPQILAALAAANISVDTRSLGIRVSPHIYNDEADIARLLGVIKANR” the value was “not soluble”; for “MGSDKIHHHHHHKAVPLASINGEWNIIEVNGSKVTPGESRTLPFITFDTATGRVSGNSGCNRMMGSFDVNAKPGSMELKGMASTRMMCPDMTTERNVLGALAQVKGYKKAGKDKMFLCNESNRPVVVLEKKEADVKLSVLNGEWKIKEVNGEAITSGMEKQPFIAFDVKKKTLHGNAGCNLINGGFETSTTNAKSISFPGVASTMMACPDMEVEGKILKAMNEVKSFDKLSGGGIGLYDANNALVIVLEK”, “not soluble”; for “MGSDKIHHHHHHMSHWFFIINPTAGHRNGLRVWKSIQKELIKRKVEHRSFLTEHPGHAEVLARQISTIQEYKLKRLIVIGGDGTMHEVVNGLKDVDDIELSFVPAGAYNDFSRGFSIKKIDLIQEIKKVKRPLTRTFHLGSVNFLQDKSQILYFMNHIGIGFDAYVNKKAMEFPLRRVFLFLRLRFLVYPLSHLHASATFKPFTLACTTEDETREFHDVWFAVVSNHPFYGGGMKAAPLANPREKTFDIVIVENQPFLKKYWLLCLMAFGKHTKMDGVTMFKAKDITFYTKDKIPFHADGEIMGTTPFRLASSPSPLRIKT”, “not soluble”. For “MRKLLVSLVLLIFSENVTANRVEQVHLSLSGKMDEMVVTWLTQGPLPNVTPYVMYGLSKDALRWTAKATTTSWKDQGSHGYVRYTHRATMTKMVPGDTYYYKVGSSQDMSDVYHFHQPDPTQPLRAAIFGDLSVYKGAPSIKQLTDATHDNHFDVIIHIGDIAYDLHDDEGNRGDDYMNAVQPFAAYVPYMVFAGNHESDSHFNQIINRFTMPKNGVYDNNLFWSFDYGLTHFIGLNSEYYAEIHTKEAQAQYKWLQADLAKNKAQWTIVMFHRPWYCSTKDKGGCNDYLDMLSRKGNSELPGLEKLLFDHKVDMVLYGHKHTYERMWPIYDGTGYKSSDSGHIRNAKAPVYILTGSAGCHTHEGPSDAPQSFSATRLGQYGYTRLKVYNTTHLSTYFVDTSDKVGNFMDKFYLEKD” the value was “soluble”. As to “EVQLQESGPSLVKPSQTLSLTCSVTGEPITSGFWDWIRKFPGNKLEFMGYIRYGGGTYYNPSLKSPISITRDTSKNHYYLQLNSVVTEDTATYYCARSRDYYGSSGFAFWGEGTLVTVSAAKTTPPSVYPLAPGCGDTTGSSVTLGCLVKGYFPESVTVTWNSGSLSSSVHTFPALLQSGLYTMSSSVTVPSSTWPSQTVTCSVAHPASSTTVDKKLE”, the “soluble on expression in E. coli” value is reported as “soluble”. For “MNTLGRFLRLTTFGESHGDVIGGVLDGMPSGIKIDYALLENEMKRRQGGRNVFITPRKEDDKVEITSGVFEDFSTGTPIGFLIHNQRARSKDYDNIKNLFRPSHADFTYFHKYGIRDFRGGGRSSARESAIRVAAGAFAKMLLREIGIVCESGIIEIGGIKAKNYDFNHALKSEIFALDEEQEEAQKTAIQNAIKNHDSIGGVALIRARSIKTNQKLPIGLGQGLYAKLDAKIAEAMMGLNGVKAVEIGKGVESSLLKGSEYNDLMDQKGFLSNRSGGVLGGMSNGEEIIVRVHFKPTPSIFQPQRTIDINGNECECLLKGRHDPCIAIRGSVVCESLLALVLADMVLLNLTSKIEYLKTIYNEN” the value was “soluble”.

For the sequence “MGSDKIHHHHHHMTTQAKQPSRFDRNPLASENERLILDIVRRHGPIARSVITTHTNLTQQSVHRLIEGLIERGLLRTGAPLKGARGQPSPTIELAVESVASLGISINTDSAIICLADFSCGVIAQKKLELLPLSREATLVSLSRTLDEMLEAHNLPRDRLLGLGFAMSGFSVADDRIFNAPEPLQDWSLMDLRPILEQTFQLPVWQENNATTGAIGESLQGVGRWCQTFAYLSFNYGFGGGLILNGQPFYGFHGNAAELSGIYDPTEAPRRPALQYLLRSLQDHGIEIDSVDTLYRTFDPGWPGVEAWLEATMPQVERLVAVLIAVIDPQAIVFGGQLPPALGAMMIERCPMPSQRVHRYGVGPKEARLVLSEVKGDAAVIGAALLPLKMRYFI”, the “soluble on expression in E. coli” value was “not soluble”. For “MTGSACFFSTDFLFGRYGPTVCIIPSENIPDKANTMIRPDFQEYLPSYYFSSVNPHTVYPKLQCRLKAETCIIGGGLSGLCTALPLAEHGHEAVVLEAARIGFGASGRSGGQVISDYACGMGEIEKQVGLEQAQWFWQQSLQAVELVDERVRKHAIDCDWQRGYATVAVRPQHWEELQQWHEHAQRHYGASHYQLWDKAELKQQLDSDMYQGAQFDPLSGHLHPLNYTLGVASAAAEAGAQIFEQSPMTRIEPYQNGWLVYTPEGSVECKNVVYAVNTYVGLNPIFRPLERKAIAVSTFIIATEPLGARTKGLIRNNMAVCDNRHILDYYRLSADGRLLFGGKDNEFIDNPARMTELVRQDMLKVFPQLADVRIEYSWGGECDITANLVPHFGRLTSNVFYTQGYSGHGMAITGIAGLAVAEAILGDECRLKPFEQLCQPNIILQPFLRKLGSFLGSKYYQWKDSRLEHHHHHH” the value was “not soluble”. For “MQFVWEAERTKAKVNAMLCLKRQAVANPLFGKGRLKIFSDDLLFIEQIPQTADNPTDKLLQFRVDFLLFPRKANKSRKNIKNVKKLRTNSLISCNYM” the value was “not soluble”; for “MRRDQKMTELNNQIRSLQEEHGKEKLLAAATKILGKKVPTDYVRVLDPLELQASLQQIDAAVQDVLEKGKAREEAYGEKASLIKQKVKLKTAVELKEAEAFMQIQGEGRNQFAYVNDQKVALTNDTLRDAYRLHYSKEERQQLTDVEQELASIDIKIYQTKDAWETAKESADLVKAKAYVQANLLKFLA”, “not soluble”. For “MAHHHHHHMTKTNGQNAARKLVRLRCRNRWADKGWKRAHTFSARKANPFGGSSHAKGIVLEKIGVGAKQPNSAIRKCVRVQLIKNDKKIIAFVPNDGCLHFIEENDEVLVSGFGRSGHAVGDIPGVRFKIVKVSNVGLYALYRQKKEKPRN” the value was “not soluble”; for “VTAEEHVESEPLTKRDFEALARFRFGIRRYVRFSEDTVRDHGLTPQHYQLLLALKGFPGREWATMRELADRLQLRHHSVVELVDRAQKQGLVERAPHPSDARAVRVELTEHGQLILARLSAMHRDELLRLGPALELPIWDDPPQDR”, “not soluble”; for “MGSDKIHHHHHHMDIKQLKFLIALDETRHFGQAAARCNITQPTLSMRLRNLEEELGLPLVNRGQRFEGFTAPGERVLAWARTVLAAYDGLQAEAAACRGHLVGTLRLGVVPMSSFDPLPLLHRLHQLHPNLRFELSSLSSEQVLEQLASNRIDLGVSYLERLDSERFDSLTLDETRMGLLYDRRHFTFGDTPLSWADLVELPLGTLTSGMHFRQSIDHNFHSRGLQPNPLIQTDAVHQLLQAVHGGFCCAIMPLDGGLETLTEHLHLHPIADACTLARLGLIMRRSAPRSALAEACFALVAEIPR”, “not soluble”.

Turning to “MSTSTVETGYGGRIRVTVARNDRDITSEVRTFLCNKENANKIIGLDTERSVVGGDSEYPPESKLVILELSDGQNCLIIPLPYVQGNKLPVSLTNFLNLPDFTFTGVGINKALKMLKSECGLTCKNAVDIGPSSPIYEDWDNDSLTEDQINLAAANAYLAFKVGNLIREAMY”, the “soluble on expression in E. coli” value was “soluble”. For “MSLQLLAEIVTVHTKHPFIIARGGQSEYQVVWVRLIDADGAEGWGEASPSKYYGETADTVMVALQRFAPVLAGADAWSIEAIERELEKAMRWNAAARCAVSAALHDLAARRLGVPLWKMWGLDRQATPISSFTIGIAPDAATLRARVREAAHYPLLKIKLGSSWDREVLRIVREEAPKAQLRVDANAAWTAKQALGMLDVLNEVGVDMLEQPLPPQELAGLRFVRERSNIPVVADESCLVASDIPKLEGIVDGVNIKLAKCGSLREALRMIAVARAHGMRVMCGCMIETTLGIAAAAHFSPLLDDADLDGAALLSDDPFDGPGIPDGRVVLGDAPGLGVTRRAGNEGHHHHHH” the value was “soluble”.
